In patent US20130171170A1 (published 2013):

Tests used:
[1] = biological target: T1, human CD22-beta-ECD-His tagged soluble antigen (human, UniProt P20273 22-681); assay: SPR (BIACORE 3000), antibody coupled to the chip, soluble CD22-beta-ECD-His injected, 25 C
T1 construct: also called soluble CD22 extracellular domain (ECD); Soluble Human CD22
T1 sequence: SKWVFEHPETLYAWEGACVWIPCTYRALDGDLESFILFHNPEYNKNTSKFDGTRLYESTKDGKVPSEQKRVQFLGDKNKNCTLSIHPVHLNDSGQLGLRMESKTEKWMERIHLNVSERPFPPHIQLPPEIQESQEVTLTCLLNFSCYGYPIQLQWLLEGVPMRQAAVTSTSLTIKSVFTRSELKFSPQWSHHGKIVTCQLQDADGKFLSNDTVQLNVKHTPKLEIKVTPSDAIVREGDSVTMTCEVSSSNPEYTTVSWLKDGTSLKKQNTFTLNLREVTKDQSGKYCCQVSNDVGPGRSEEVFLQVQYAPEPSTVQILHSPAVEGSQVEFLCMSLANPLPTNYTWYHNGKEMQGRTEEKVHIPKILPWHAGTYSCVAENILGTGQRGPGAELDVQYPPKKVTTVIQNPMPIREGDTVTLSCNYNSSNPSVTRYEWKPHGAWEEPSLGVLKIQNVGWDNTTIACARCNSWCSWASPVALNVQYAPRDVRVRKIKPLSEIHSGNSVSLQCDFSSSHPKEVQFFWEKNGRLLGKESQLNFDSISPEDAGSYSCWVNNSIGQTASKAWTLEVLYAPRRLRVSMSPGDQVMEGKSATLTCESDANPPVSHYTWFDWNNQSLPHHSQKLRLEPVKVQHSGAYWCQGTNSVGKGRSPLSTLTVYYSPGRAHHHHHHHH
Experimental: The binding affinity of murine and humanized 10F4 antibody for soluble CD22 extracellular domain (ECD) was determined by surface plasmon resonance measurement using a BIACORE® 3000 system (Biacore, Inc., Piscataway, N.J.). Briefly, carboxymethylated dextran biosensor chips (CMS, Biacore Inc.) were activated with N-ethyl-N′-(3-dimethylaminopropyl)-carbodiimide hydrochloride (EDC) and N-hydroxysuccinimide (NHS) according to the supplier's instructions. These activated chips were coated with anti-CD22 IgG1 antibody 10F4 (murine or humanized) by dilution to 5 μg/ml with 10 mM sodium acetate, pH 4.8, before injection at a flow rate of […] to achieve approximately 500 response units (RU) of coupled antibody. Next, 1M ethanolamine was injected to block unreacted groups. […] Association rates (kₒₙ) and dissociation rates (koff) were calculated using a simple one-to-one Langmuir binding model (BIAevaluation Software version 3.2). The equilibrium dissociation constant (Kd) was calculated as the ratio koff/kₒₙ. Anti-CD22 antibody, RFB4, was used as a control (Chemicon International, Inc., Temecula, Calif., catalog no. CBL147).

[2] = biological target: T2, CD22 variant lacking domain 2 (Δ2), expressed on CHO cells (human, UniProt P20273 22-847); assay: flow cytometry on CHO cells expressing the CD22 deletion variant; goat anti-mouse IgG Alexa 488
T2 construct: Membrane protein on stably transformed CHO cells; Numbering of full length precursor CD22beta (Wilson et al. 1991); also called CD22 lacking domain 2
T2 chain: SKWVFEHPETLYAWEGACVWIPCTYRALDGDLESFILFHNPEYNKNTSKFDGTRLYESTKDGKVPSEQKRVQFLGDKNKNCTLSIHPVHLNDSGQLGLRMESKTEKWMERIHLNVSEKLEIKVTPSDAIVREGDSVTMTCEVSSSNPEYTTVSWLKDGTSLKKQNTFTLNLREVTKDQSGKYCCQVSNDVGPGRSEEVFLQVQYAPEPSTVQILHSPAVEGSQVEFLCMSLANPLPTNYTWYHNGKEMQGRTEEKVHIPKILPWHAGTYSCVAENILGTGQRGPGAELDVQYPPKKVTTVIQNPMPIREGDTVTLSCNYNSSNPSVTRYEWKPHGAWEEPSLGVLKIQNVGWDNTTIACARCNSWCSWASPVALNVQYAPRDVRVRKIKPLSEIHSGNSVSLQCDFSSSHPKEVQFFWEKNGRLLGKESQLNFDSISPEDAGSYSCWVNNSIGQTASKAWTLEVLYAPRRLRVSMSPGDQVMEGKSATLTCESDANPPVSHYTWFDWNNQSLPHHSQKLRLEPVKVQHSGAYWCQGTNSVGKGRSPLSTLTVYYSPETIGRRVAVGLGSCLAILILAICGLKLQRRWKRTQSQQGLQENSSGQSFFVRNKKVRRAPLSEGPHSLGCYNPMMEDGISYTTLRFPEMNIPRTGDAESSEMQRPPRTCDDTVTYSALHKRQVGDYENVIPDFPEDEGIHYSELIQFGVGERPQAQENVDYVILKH
Experimental: CD22 sequences lacking various of the seven immunoglobulin-like domains of the major CD22 isoform (CD22beta) were cloned and transformed into cells for stable expression. For example, CD22 variants lacking domain 1 (Δ1), domain 2 (Δ2), or domains 3 and 4 (Δ3,4) were cloned, transformed into CHO cells, and expressed on the cells. Control cells expressed CD22beta. Deletions were performed using Stratagene QuikChange XL™ reagent kit. Deletion of domain 1 was performed by deletion of amino acids 22-138; deletion of domain 2 was performed by deletion of amino acids 139-242; and deleted domains 3 and 4 were available as the minor isoform CD22alpha (deletion of amino acids 241-417). All amino acid numbers refer to the numbering of full length precursor CD22beta by Wilson, G. L. et al. (see FIG. 1 in Wilson, G. L. et al., J. Exp. Med. 173:137-146 (1991)). FIG. 14 is a diagram of the deleted domains. Binding was determined by flow cytometry using an isotype control. […] Binding of 5E8.1.8 was detected using biotinylated goat anti-mouse IgG plus streptavidin PE.

B1: murine anti-human CD22 10F4.4.1 monoclonal antibody (antibody, V domains shown)
VH: QVQLQQSGPELVKPGASVKISCKASGYEFSRSWMNWVKQRPGQGREWIGRIYPGDGDTNYSGKFKGKATLTADKSSSTAYMQLSSLTSVDSAVYFCARDGSSWDWYFDVWGAGTTVTVSS
VL: DILMTQTPLSLPVSLGDQASISCRSSQSIVHSNGNTFLEWYLQKPGQSPKLLIYKVSNRFSGVPDRFSGSGSGTDFTLKISRVEAEDLGVYYCFQGSQFPYTFGGGTKVEIK
notes: Murine hybridoma antibody (ATCC PTA-7621); also called mu 10F4; Mu 10F4.4.1
Kd [1]: 15 nM
koff [1]: 0.00028 s⁻¹
kon [1]: 19000 M⁻¹ s⁻¹
binding result [2]: no binding
